Experimental findings from publication PMC6096924, “Mechanism of activation of the BNLF2a immune evasion gene of Epstein-Barr virus by Zta” are described below.

Details in all cases: protein: recombinant; tags: His, GST (fusion); chain copies: 2; label: IR-800; blunt
In data set [1] the target is T1, His-GST-Zta (DNA binding and dimerization region) (Epstein-Barr virus, UniProt P03206 168-245). Put plainly: EMSA. (A gel shift assay detects complexes by their altered migration in electrophoresis.)
T1 sequence (P03206 168-245): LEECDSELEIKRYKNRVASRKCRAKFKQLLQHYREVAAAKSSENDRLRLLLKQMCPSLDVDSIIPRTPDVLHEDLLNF
Data set [2] concerns the target T1, His-GST-Zta (DNA binding and …). Put plainly: EMSA; CpG methylation; binding increased vs unmethylated ZRE1 (P<=0.01).
Data set [3] has the same target. Description: EMSA; highest binding of the five ZREs.

B1: BNLF2a ZRE4 (dsDNA)
DNA 1: TCACCTTAACTGGCACACACTCCCTTA
DNA 2: TAAGGGAGTGTGTGCCAGTTAAGGTGA
Regarding B1, the binding result in data set [1] is recorded as “binds”.

B2: BNLF2a ZRE1me (CpG-methylated) (dsDNA)
DNA 1: ACACCTGTCCTCGCTCATCTTTCCACA
DNA 2: TGTGGAAAGATGAGCGAGGACAGGTGT
modifications: 5-methyl-C (printed meC) at C12 of strand 1 and C15 of strand 2
With B2, the binding result in data set [2] is on record as “binds”.

B3: BNLF2a ZRE5 (dsDNA)
DNA 1: TAAGCTACTATGACTAACCTTTCTTTA
DNA 2: TAAAGAAAGGTTAGTCATAGTAGCTTA
As to B3, in data set [1], the binding result is given as “binds”.

B4: BNLF2a ZRE3 (dsDNA)
DNA 1: CTTTCCATCTTGTGCCAATACACATTT
DNA 2: AAATGTGTATTGGCACAAGATGGAAAG
For B4, in data set [1], the binding result is on record as “binds”.

B5: BNLF2a ZRE1 (dsDNA)
DNA 1: ACACCTGTCCTCGCTCATCTTTCCACA
DNA 2: TGTGGAAAGATGAGCGAGGACAGGTGT
Consider B5, for which the binding result in data set [1] is “binds”.

B6: BNLF2a ZRE2 (dsDNA)
DNA 1: CACCTGTTGTTGACACATTCTTTGCGC
DNA 2: GCGCAAAGAATGTGTCAACAACAGGTG
With B6, in data set [3], the binding result is recorded as “binds”.
